Key:
RPLALWRS (SEQ ID NO: 3) = biological target: T1, RPLALWRS (SEQ ID NO: 3)
T1 chain: RPLALWRS

PVSLRSGS (SEQ ID NO: 1) = biological target: T2, PVSLRSGS (SEQ ID NO: 1)
T2 chain: PVSLRSGS

[1] = biological target: T3, IVGRPRHQGV (SEQ ID NO: 7)
T3 chain: IVGRPRHQGV

RSKYLATA (SEQ ID NO: 8) = biological target: T4, RSKYLATA (SEQ ID NO: 8)
T4 chain: RSKYLATA

PANLVAPDP (SEQ ID NO: 6) = biological target: T5, PANLVAPDP (SEQ ID NO: 6)
T5 chain: PANLVAPDP

TQKPLGLS (SEQ ID NO: 4) = biological target: T6, TQKPLGLS (SEQ ID NO: 4)
T6 chain: TQKPLGLS

[2] = biological target: T7, APAGLIVPYN (SEQ ID NO: 5)
T7 chain: APAGLIVPYN

B1: MMP-2 (protein)
chain: YNFFPRKPKWDKNQITYRIIGYTPDLDPETVDDAFARAFQVWSDVTPLRFSRIHDGEADIMINFGRWEHGDGYPFDGKDGLLAHAFAPGTGVGGDSHFDDDELWTLGEGQVVRVKYGNADGEYCKFPFLFNGKEYNSCTDTGRSDGFLWCSTTYNFEKDGKYGFCPHEALFTMGGNAEGQPCKFPFRFQGTSYDSCTTEGRTDGYRWCGTTEDYDRDKKYGFCPETAMSTVGGNSEGAPCVFPFTFLGNKYESCTSAGRSDGKMWCATTANYDDDRKWGFCPDQGYSLFLVAAHEFGHAMGLEHSQDPGALMAPIYTYTKNFRLSQDDIKGIQELYGASPDIDLGTGPTPTLGPVTPEICKQDIVFDGIAQIRGEIFFFKDRFIWRTVTPRDKPMGPLLVATFWPELPEKIDAVYEAPQEEKAVFFAGNEYWIYSASTLERGYPKPLTSLGLPPDVQRVDAAFNWSKNKKTYIFAGDKFWRYNEVKKKMDPGFPKLIADAWNAIPDNLDAVVDLQGGGHSYFFKGAYYLKLENQSLKSVKFGSIKSDWLGC
RPLALWRS (SEQ ID NO: 3)
  initial rate of cleavage by recombinant protease: 1.1 µM/h
PVSLRSGS (SEQ ID NO: 1)
  initial rate of cleavage by recombinant protease: 1.9 µM/h
[1]
  initial rate of cleavage by recombinant protease: 0 µM/h
RSKYLATA (SEQ ID NO: 8)
  initial rate of cleavage by recombinant protease: 0 µM/h
PANLVAPDP (SEQ ID NO: 6)
  initial rate of cleavage by recombinant protease: 31.2 µM/h
TQKPLGLS (SEQ ID NO: 4)
  initial rate of cleavage by recombinant protease: 11.8 µM/h
[2]
  initial rate of cleavage by recombinant protease: 29.6 µM/h

B2: MMP-7 (protein)
chain: YSLFPNSPKWTSKVVTYRIVSYTRDLPHITVDRLVSKALNMWGKEIPLHFRKVVWGTADIMIGFARGAHGDSYPFDGPGNTLAHAFAPGTGLGGDAHFDEDERWTDGSSLGINFLYAATHELGHSLGMGHSSDPNAVMYPTYGNGDPQNFKLSQDDIKGIQKLYGKRSNSRKK
RPLALWRS (SEQ ID NO: 3)
  initial rate of cleavage by recombinant protease: 0.2 µM/h
PVSLRSGS (SEQ ID NO: 1)
  initial rate of cleavage by recombinant protease: 0.2 µM/h
[1]
  initial rate of cleavage by recombinant protease: 0 µM/h
RSKYLATA (SEQ ID NO: 8)
  initial rate of cleavage by recombinant protease: 0 µM/h
PANLVAPDP (SEQ ID NO: 6)
  initial rate of cleavage by recombinant protease: 2.5 µM/h
TQKPLGLS (SEQ ID NO: 4)
  initial rate of cleavage by recombinant protease: 1.8 µM/h
[2]
  initial rate of cleavage by recombinant protease: 2.4 µM/h

B3: MMP-1 (protein)
chain: FVLTEGNPRWEQTHLTYRIENYTPDLPRADVDHAIEKAFQLWSNVTPLTFTKVSEGQADIMISFVRGDHRDNSPFDGPGGNLAHAFQPGPGIGGDAHFDEDERWTNNFREYNLHRVAAHELGHSLGLSHSTDIGALMYPSYTFSGDVQLAQDDIDGIQAIYGRSQNPVQPIGPQTPKACDSKLTFDAITTIRGEVMFFKDRFYMRTNPFYPEVELNFISVFWPQLPNGLEAAYEFADRDEVRFFKGNKYWAVQGQNVLHGYPKDIYSSFGFPRTVKHIDAALSEENTGKTYFFVANKYWRYDEYKRSMDPGYPKMIAHDFPGIGHKVDAVFMKDGFFYFFHGTRQYKFDPKTKRILTLQKANSWFNCRKN
RPLALWRS (SEQ ID NO: 3)
  initial rate of cleavage by recombinant protease: 0.1 µM/h
PVSLRSGS (SEQ ID NO: 1)
  initial rate of cleavage by recombinant protease: 0 µM/h
[1]
  initial rate of cleavage by recombinant protease: 0 µM/h
RSKYLATA (SEQ ID NO: 8)
  initial rate of cleavage by recombinant protease: 0 µM/h
PANLVAPDP (SEQ ID NO: 6)
  initial rate of cleavage by recombinant protease: 2.7 µM/h
TQKPLGLS (SEQ ID NO: 4)
  initial rate of cleavage by recombinant protease: 0 µM/h
[2]
  initial rate of cleavage by recombinant protease: 0 µM/h
